Laboratory results reported in US20090166224A1 (published 2009).

Columns and labels:
Experiment in all cases: human serum on Con A/WGA/Jacalin column, lectin-specific displacer fraction, LC-MS/MS; grade = SEQUEST rank group (+ = ranks 1-5, ++++ = 16-20)
[1] = target: T1, INTER-ALPHA-TRYPSIN INHIBITOR HEAVY CHAIN H2 (human, UniProt P19823 55-702)
T1 construct: from human serum; also called ITH2
T1 sequence (looked up): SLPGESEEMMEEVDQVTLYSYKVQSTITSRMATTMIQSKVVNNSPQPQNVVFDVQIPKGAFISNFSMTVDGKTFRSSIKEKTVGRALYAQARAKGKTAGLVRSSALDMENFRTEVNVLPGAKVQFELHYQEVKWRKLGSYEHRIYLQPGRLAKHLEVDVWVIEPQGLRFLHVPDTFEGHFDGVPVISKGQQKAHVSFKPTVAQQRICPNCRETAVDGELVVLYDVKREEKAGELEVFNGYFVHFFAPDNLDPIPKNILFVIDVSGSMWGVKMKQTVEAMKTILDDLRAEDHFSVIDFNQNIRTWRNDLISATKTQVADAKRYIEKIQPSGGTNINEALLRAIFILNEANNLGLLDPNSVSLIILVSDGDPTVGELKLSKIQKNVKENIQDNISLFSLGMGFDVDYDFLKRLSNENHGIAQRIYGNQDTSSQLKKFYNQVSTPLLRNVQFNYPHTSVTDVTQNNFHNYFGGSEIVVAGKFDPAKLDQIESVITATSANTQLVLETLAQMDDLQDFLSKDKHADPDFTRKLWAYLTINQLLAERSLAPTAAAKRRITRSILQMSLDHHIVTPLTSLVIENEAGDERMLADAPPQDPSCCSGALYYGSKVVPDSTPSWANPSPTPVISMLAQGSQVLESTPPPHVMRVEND

[2] = target: T2, HAPTOGLOBIN-RELATED PROTEIN (human, UniProt P00739 1-348, limits assumed)
T2 construct: from human serum; also called HPTR
T2 sequence (looked up): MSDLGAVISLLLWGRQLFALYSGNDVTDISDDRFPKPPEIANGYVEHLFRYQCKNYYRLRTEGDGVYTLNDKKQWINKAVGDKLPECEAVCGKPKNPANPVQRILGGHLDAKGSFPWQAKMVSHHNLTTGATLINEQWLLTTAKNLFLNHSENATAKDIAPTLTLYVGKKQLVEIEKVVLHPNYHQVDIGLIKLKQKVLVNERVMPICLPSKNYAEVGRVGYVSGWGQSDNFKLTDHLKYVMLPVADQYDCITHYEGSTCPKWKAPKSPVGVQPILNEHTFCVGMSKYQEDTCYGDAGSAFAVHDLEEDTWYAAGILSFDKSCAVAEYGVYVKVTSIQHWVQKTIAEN

Alpha-1-antitrypsin = target: T3, Alpha-1-antitrypsin (human, UniProt P01009 25-418)
T3 construct: also called A1AT; α1-antitrypsin

APOLIPOPROTEIN C-III = target: T4, APOLIPOPROTEIN C-III (human, UniProt P02656 21-99)
T4 construct: from human serum; also called APC3

APOLIPOPROTEIN E = target: T5, APOLIPOPROTEIN E (human, UniProt P02649 19-317)
T5 construct: from human serum; also called APE

[3] = target: T6, IG GAMMA-3 CHAIN C REGION (human, UniProt P01860-1 1-377)
T6 construct: domain: C region; Polyclonal serum IgG3, identified through its constant region; variable regions and light chains not defined; also called GC3

[4] = target: T7, INTER-ALPHA-TRYPSIN INHIBITOR HEAVY CHAIN H1 (human, UniProt P19827 35-672)
T7 construct: from human serum; also called ITH1
T7 sequence (looked up): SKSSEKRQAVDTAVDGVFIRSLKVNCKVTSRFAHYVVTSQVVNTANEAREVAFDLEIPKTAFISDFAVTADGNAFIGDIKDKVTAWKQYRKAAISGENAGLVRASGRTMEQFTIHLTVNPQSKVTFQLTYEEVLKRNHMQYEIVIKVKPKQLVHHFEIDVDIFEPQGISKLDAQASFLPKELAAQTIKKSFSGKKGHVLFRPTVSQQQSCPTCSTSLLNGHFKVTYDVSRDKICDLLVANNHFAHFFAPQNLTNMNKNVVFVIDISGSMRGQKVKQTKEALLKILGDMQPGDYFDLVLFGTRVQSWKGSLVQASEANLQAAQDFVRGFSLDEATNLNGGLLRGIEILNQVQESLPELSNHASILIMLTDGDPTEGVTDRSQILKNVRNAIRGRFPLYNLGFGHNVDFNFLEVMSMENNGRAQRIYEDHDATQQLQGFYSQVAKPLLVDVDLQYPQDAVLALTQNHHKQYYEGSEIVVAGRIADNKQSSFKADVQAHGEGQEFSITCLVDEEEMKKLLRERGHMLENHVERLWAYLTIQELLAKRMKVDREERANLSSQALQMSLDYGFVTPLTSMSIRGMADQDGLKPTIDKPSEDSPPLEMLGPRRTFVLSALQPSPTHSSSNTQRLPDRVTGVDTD

T5 sequence (P02649 19-317 limits assumed): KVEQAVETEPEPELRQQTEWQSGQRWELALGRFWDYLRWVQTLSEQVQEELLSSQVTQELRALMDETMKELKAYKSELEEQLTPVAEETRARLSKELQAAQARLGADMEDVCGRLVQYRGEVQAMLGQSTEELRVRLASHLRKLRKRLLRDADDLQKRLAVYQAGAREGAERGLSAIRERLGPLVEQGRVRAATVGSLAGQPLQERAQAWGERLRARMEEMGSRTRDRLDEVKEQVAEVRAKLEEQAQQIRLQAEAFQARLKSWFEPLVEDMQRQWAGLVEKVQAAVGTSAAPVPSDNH
T4 sequence (P02656 21-99 limits assumed): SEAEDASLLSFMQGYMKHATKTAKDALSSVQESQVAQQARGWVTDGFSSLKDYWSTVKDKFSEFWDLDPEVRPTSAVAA
T3 sequence (P01009 25-418 limits assumed): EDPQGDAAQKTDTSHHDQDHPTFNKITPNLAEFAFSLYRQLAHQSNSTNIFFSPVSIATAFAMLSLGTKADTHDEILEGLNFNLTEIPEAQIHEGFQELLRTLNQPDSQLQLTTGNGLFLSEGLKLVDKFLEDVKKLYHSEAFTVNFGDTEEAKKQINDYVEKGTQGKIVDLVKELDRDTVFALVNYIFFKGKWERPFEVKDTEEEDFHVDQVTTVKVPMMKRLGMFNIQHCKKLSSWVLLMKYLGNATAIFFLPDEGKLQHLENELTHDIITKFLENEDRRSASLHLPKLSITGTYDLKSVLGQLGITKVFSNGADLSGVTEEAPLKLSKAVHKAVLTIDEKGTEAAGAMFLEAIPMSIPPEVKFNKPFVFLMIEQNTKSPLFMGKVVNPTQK
T6 sequence (P01860 other isoform, or with tags, fused parts or gaps limits assumed): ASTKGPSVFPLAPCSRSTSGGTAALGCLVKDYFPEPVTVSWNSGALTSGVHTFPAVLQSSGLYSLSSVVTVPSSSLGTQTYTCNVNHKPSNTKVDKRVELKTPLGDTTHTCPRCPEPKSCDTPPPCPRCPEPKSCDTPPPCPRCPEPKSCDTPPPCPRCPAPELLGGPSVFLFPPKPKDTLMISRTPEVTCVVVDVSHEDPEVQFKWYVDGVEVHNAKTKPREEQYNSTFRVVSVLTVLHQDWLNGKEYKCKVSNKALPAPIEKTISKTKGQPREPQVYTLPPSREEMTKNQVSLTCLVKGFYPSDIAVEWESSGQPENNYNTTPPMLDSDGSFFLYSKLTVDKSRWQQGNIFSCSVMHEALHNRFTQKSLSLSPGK

SEQUEST ranking (relative abundance in the Jacalin displacement fraction) [1]: 16 to 20 rank
SEQUEST ranking (relative abundance in the Jacalin displacement fraction) [2]: 6 to 10 rank
SEQUEST ranking (relative abundance in the Jacalin displacement fraction) (Alpha-1-antitrypsin): 1 to 5 rank
SEQUEST ranking (relative abundance in the Jacalin displacement fraction) (APOLIPOPROTEIN C-III): 6 to 10 rank
SEQUEST ranking (relative abundance in the Jacalin displacement fraction) (APOLIPOPROTEIN E): 11 to 15 rank
SEQUEST ranking (relative abundance in the Jacalin displacement fraction) [3]: 16 to 20 rank
SEQUEST ranking (relative abundance in the Jacalin displacement fraction) [4]: 6 to 10 rank
B1: Jacalin lectin, agarose-bound (other)
chain 1: GKAFDDGAFTGIREINLSYNKETAIGDFQVVYDLNGSPYVGQNHKSFITGFTPVKISLDFPSEYIMEVSGYTGNVSGYVVVRSLTFKTNKKTYGPYGVTSGTPFNLPIENGLIVGFKGSIGYWLDYFSMYLSL
chain 2: NEQSGKSQTVIVGSWGAKVS
modifications: immobilized on agarose
notes: Lectin; released with galactose; Coated on the plate in the lectin ELISA
